One assay concerns rNav1.2a. Put plainly: Two-electrode voltage-clamp, rNav1.2a expressed in Xenopus oocytes. The class given is cell-based, rat. The following applies: 100 nM toxin. The source says:
The DNA sequence of rat (r)Nav1.2a (provided by A. Goldin, University of California, Irvine, Irvine, Calif.), rKv2.1 (provided by K. J. Swartz, National Institutes of Health), and the rNav1.2a/Kv2.1 VSD II or IV chimera was confirmed by automated DNA sequencing, and cRNA was synthesized using T7 polymerase (mMessage mMachine™ kit; Life Technologies) after linearizing the DNA with appropriate restriction enzymes. Channels were expressed in Xenopus oocytes (obtained from Xenopus 1) and studied after a 1-d incubation after cRNA injection (incubated at 17° C. in 96 mM NaCl, 2 mM KCl, 5 mM HEPES, 1 mM MgCl2, 1.8 mM CaCl2, and 50 μg/ml gentamycin, pH 7.6 with NaOH) using two-electrode voltage-clamp recording techniques (OC-725C; Warner Instruments) with a 150-μl recording chamber. Data were filtered at 4 kHz and digitized at 20 kHz using pClamp™ 10 software (Molecular Devices). Microelectrode resistances were 0.5-1.5 MΩ when filled with 3 M KCl. For Kv chimera channel experiments, the external recording solution contained (mM): 50 KCl, 50 NaCl, 5 HEPES, 1 MgCl2, and 0.3 CaCl2, pH 7.6 with NaOH. For rNav1.2a experiments, the external recording solution contained (mM): 100 NaCl, 5 HEPES, 1 MgCl2, and 1.8 CaCl2, pH 7.6 with NaOH. All experiments were performed at ˜22° C. Leak and background conductances, identified by blocking the channel with agitoxin-2 (provided by K. J. Swartz), have been subtracted for all of the Kv channel currents shown. […] Voltage-activation relationships were obtained by measuring tail currents for Kv channels or steady-state currents and calculating conductance for Nav channels, and a single Boltzmann function was fitted to the data according to I/Imax=[1c+cexp(−zF(Vc−cV1/2)/RT)]^−1, where I/Imax is the normalized tail-current amplitude, z is the equivalent charge, V1/2 is the half-activation voltage, F is Faraday's constant, R is the gas constant, and T is temperature in kelvin. For all channels, voltage-activation relationships were recorded in the absence and presence of toxin. The ratio of currents (I/I0) recorded in the presence (I) and absence (I0) of toxin was calculated for voltages typically ranging from −140 to 10 cmV, depending on the construct. […] The apparent equilibrium dissociation constant (apparent KD) for Kv channels was calculated according to KD=((1/(1c−cFu^1/4))c−c1)[toxin], assuming four independent toxin-binding sites per channel. Results are given as mean±SEM unless noted otherwise. Offline data analysis was performed using Clampfit 10™ (Molecular Devices), Origin 8.0™ (OriginLab), and Excel™ (Microsoft). All chemicals were obtained from Sigma-Aldrich.
Representative sodium currents were elicited by a 50-ms depolarization to a suitable membrane voltage (−20 to −15 mV) before (black) and after toxin addition (green) from a holding voltage of −90 mV. […] For each toxin, K^+ currents were elicited by a 300-ms depolarization to 0 mV from a holding voltage of −90 mV (tail voltage was −60 mV). […] For each toxin, K^+ currents (top) were elicited by a 300-ms depolarization near the foot of the voltage-activation curve (bottom) from a holding voltage of −90 mV.
For orientation: Two-electrode voltage clamp holds a large cell at a set potential and records current.

Assay [1] deals with rNav1.2a/Kv2.1 VSD IV chimera L1630A. The following applies: L1630A substitution; read-out: apparent KD; cited from earlier work.
Chain of rNav1.2a/Kv2.1 VSD IV chimera L1630A (P04775 1605-1636 L1630A limits assumed): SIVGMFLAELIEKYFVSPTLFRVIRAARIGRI
Assay [2] concerns rNav1.2a/Kv2.1 VSD IV chimera containing the R1629A/L1630A substitutions. It counts as cell-based, rat.
Chain of rNav1.2a/Kv2.1 VSD IV chimera containing the R1629A/L1630A substitutions (P04775 1605-1636 R1629A/L1630A limits assumed): as the sequence (P04775 1605-1636 L1630A limits assumed) above, with R25A counted along it
Text: The DNA sequence of rat (r)Nav1.2a (provided by A. Goldin, University of California, Irvine, Irvine, Calif.), rKv2.1 (provided by K. J. Swartz, National Institutes of Health), and the rNav1.2a/Kv2.1 VSD II or IV chimera was confirmed by automated DNA sequencing, and cRNA was synthesized using T7 polymerase (mMessage mMachine™ kit; Life Technologies) after linearizing the DNA with appropriate restriction enzymes. Channels were expressed in Xenopus oocytes (obtained from Xenopus 1) and studied after a 1-d incubation after cRNA injection (incubated at 17° C. in 96 mM NaCl, 2 mM KCl, 5 mM HEPES, 1 mM MgCl2, 1.8 mM CaCl2, and 50 μg/ml gentamycin, pH 7.6 with NaOH) using two-electrode voltage-clamp recording techniques (OC-725C; Warner Instruments) with a 150-μl recording chamber. Data were filtered at 4 kHz and digitized at 20 kHz using pClamp™ 10 software (Molecular Devices). […] For all channels, voltage-activation relationships were recorded in the absence and presence of toxin. The ratio of currents (I/I0) recorded in the presence (I) and absence (I0) of toxin was calculated for voltages typically ranging from −140 to 10 cmV, depending on the construct. […] The apparent equilibrium dissociation constant (apparent KD) for Kv channels was calculated according to KD=((1/(1c−cFu^1/4))c−c1)[toxin], assuming four independent toxin-binding sites per channel. […]
In assay [3] the target is rNav1.2a/Kv2.1 VSD IV paddle chimera. The following applies: WT chimera; read-out: apparent KD, WT chimera (previously shown); cited from earlier work.
Chain of rNav1.2a/Kv2.1 VSD IV paddle chimera (P04775 1605-1636 limits assumed, change not shown): as the sequence (P04775 1605-1636 L1630A limits assumed) above, with A26L counted along it

The text below walks through data of patent publication US10429300B2, “Surface plasmon resonance approach to monitor protein-ligand interactions” (The Johns Hopkins University, priority 2015, dated 2019).

B1: AaHII: Nav channel-selective α-scorpion toxin from Androctonus australis hector; model toxin (protein)
chain: VKDGYIVDDVNCTYFCGRNAYCNEECTKLKGESGYCQWASPYGNACYCYKLPDHVRTKGPGRCH
Consider B1, for which, in the assay on rNav1.2a (50-ms test pulse), the “effect on rNav1.2a fast inactivation” value is given as “inhibits rNav1.2a fast inactivation”. For the same molecule, the “fast inactivation time constant (τ) after toxin application” value in the assay with rNav1.2a (single-exponential fit of current decay, n=3, mean±SEM) was determined as 4.9±0.1. Further, the Kd was 205 ± 23 nM in assay [1], 193 ± 42 nM in assay [2] (read-out: apparent KD) and 1900 nM in assay [3]. Besides, the “inhibition of the double mutant channel” value in assay [2] (100 nM toxin) is given as “strongly inhibits”.
